What all share (format): cell-based, human
Experiment [1] relates to HaCaT cells. Kind of experiment: H2O2 production by P. acnes-stimulated HaCaT (spectrofluorimetry, H2-DCFDA). As to conditions: bacteria first pretreated, 0.87 to 7 μM. The procedure:
(§1) For experiences of stimulation with P. acnes, cells were incubated with the P. acnes suspension adjusted at the appropriate concentration, pre-treated for 1 h at 37° C. or not with fibrinogen recombinant peptides Fg1 and Fg2 at the concentrations 0.87, 1.75, 3.5 or 7 μM for the desired period of time at 37° C. in 5% CO2.
All cells lines (5·10^4 to 10^5 cells/well) were seeded in 96-well plates (Corning Costar, Brumath, France) and treated as previously described. After stimulation, cells were washed three times in PBS and incubated with 100 μl per wells of 5 μM DHE (for determination of O2^●−) or 5 μM H2-DCFDA (for determination of H2O2) for 30 min as described previously and fluorescence intensity was recorded every hour over a period of 5 h. Fluorescence excitation/emission maxima were for DHE: 480/610 nm and for H2-DCFDA: 507/525 nm. At the end of the experiment, the number of adherent cells was evaluated by the crystal violet assay as described below. O2^●−, and H2O2 were assayed by spectrofluorimetry on a Fusion spectrofluorimeter (PackardBell, Paris, France). Levels of ROS were calculated in each sample as follows: reactive oxygen species rate (arbitrary units/min/10^6 cells)=(fluorescence intensity [arbitrary units] at T5h—fluorescence intensity [arbitrary units] at To/300 minutes/number of adherent cells as measured by the crystal violet assay, and were expressed as arbitrary unit (A.U.).
(§2) To assess the efficacy of Fg1 recombinant peptide, the production of O2^∘− and H2O2 by HaCaT cells NHDK, THP-1, MRC5 and HDF stimulated by pretreated P. acnes strains 6919, RON and PIE was measured. The amount of ROS produced was compared to that produced by the stimulated cells with untreated bacteria. Production baseline was obtained by measuring ROS on unstimulated cells. The production of IL-1ß, IL-8, IL-12 and TNF-α was also measured in all conditions cited above. The measurement of the production of ROS is performed by spectrofluorimetry in the presence of specific fluorochromes directly on the monolayer cell. Measurement of cytokine production was performed in parallel on the cell culture supernatant.
(§3) Two sets of experiments were implemented: 1) The cells were stimulated (18 h at 37° C.) by P. acnes strains previously pretreated with Fg1 and Fg2 peptides at the final concentrations ranging from 0.87 to 7 μM for 1 h at 37° C.; and 2) The cells were pretreated first with Fg1 and Fg2 peptides at the final concentrations ranging from 0.87 to 7 μM for 24 h at 37° C. and stimulated (18 h at 37° C.) by P. acnes strains.
To assess the efficacy of the small Fg1-related peptide, the production of H2O2 by several cell lines (HaCaT, NHDK, THP-1, MRC5 and HDF) stimulated by three P. acnes strains 6919, RON and PIE was measured, in presence or not with the small peptides. The amount of H2O2 produced is compared to that produced by the stimulated cells with untreated bacteria. Production baseline is obtained by measuring H2O2 on unstimulated cells. The measurement of the production of H2O2 is performed by spectrofluorimetry in the presence of specific fluorochromes directly on the monolayer cell.
Two sets of experiments have been implemented: • I) The cells are stimulated (18 h at 37° C.) by P. acnes strains previously pretreated with Fg1.1, Fg1.2, Fg1.3, Fg1.4, and Fg1.5 small peptides at the final concentrations ranging from 2.5 to 20 μM for 1 h at 37° C.; • II) The cells are pretreated first with the five small peptides at the final concentrations ranging from 2.5 to 20 μM for 24 h at 37° C. and stimulated (18 h at 37° C.) by P. acnes strains.

Experiment [2] deals with NHDK cells. Kind of experiment: IL-1β production by P. acnes-stimulated NHDK (ELISA). As to conditions: P. acnes 6919, set I, bacteria first pretreated, 0.87 to 7 μM. The procedure:
as §1
(§4) Human IL-1ß, IL-8, IL-12, hBD-2, and TNF-α protein concentration was measured in the supernatants of stimulated cells using various ELISA Set kits (Ready-Set-Go kit from eBioscience for acne experiments, and for psoriasis experiments the Duo set IL-8 kit from R&D Systems and the BD-2 Human Development (hBD-2) from Peprotech) according to the manufacturer's instructions. We used serial dilutions of recombinant human IL-1ß, IL-8, IL-12 and TNF-α for standard curve. The optical density was determined at 450 nm at a wavelength correction of 540 nm.
To assess the efficacy of Fg1 recombinant peptide, the production of O2^∘− and H2O2 by HaCaT cells NHDK, THP-1, MRC5 and HDF stimulated by pretreated P. acnes strains 6919, RON and PIE was measured. The amount of ROS produced was compared to that produced by the stimulated cells with untreated bacteria. Production baseline was obtained by measuring ROS on unstimulated cells. The production of IL-1ß, IL-8, IL-12 and TNF-α was also measured in all conditions cited above. […]

Experiment [3] concerns MRC5 cells. Kind of experiment: IL-8 production by P. acnes-stimulated MRC5 (ELISA). Particulars: 0.87 to 7 μM. The procedure: FIG. 15: Dose-dependent inhibition of IL-8 production by fibroblast stimulated by P. acnes pre-treated by recombinant peptide. MRC5 cells were incubated for 18 h with P. acnes RON strain at a concentration adjusted to 0.2 of absorbance at 600 nm (blue bar) and with P. acnes pretreated with recombinant peptide Fg1 (light gray bar) and Fg2 (dark gray bar). IL-8 concentration was measured by ELISA as described in Materials and Methods. Control experiment was done on unstimulated HaCaT cell (red bar). Data are means±S.D. of three separate experiments. Statistical significance is indicated by * (P<0.05), ** (P<0.01), *** (P<0.001), and **** (P<0.0001), respectively.
as §1, §4, §2, §3
(In general: In an ELISA, binding on a coated surface is turned into a signal by an enzyme label.)

Experiment [4] concerns NHDK cells. Briefly: H2O2 production by keratinocytes stimulated by lipoteichoic acid (LTA). As to conditions: NHDK pre-treated 24 h with 1.75 to 7 μM, then LTA 10 μg/ml. As for the experimental part:
FIG. 18: Dose-dependent inhibition of H2O2 production by keratinocyte pre-treated by small Fg1-generated peptides and stimulated by lipoteichoic acid (LTA). NHDK cell were incubated for 24 h with recombinant peptide Fg1 (light gray bar) and Fg2 (dark gray bar) at concentrations ranging from 1.75 to 7 μM. Measurement of hydrogen peroxide production was realized by spectrofluorometry as described in Materials and Methods. Controls experiments were done with unstimulated NHDK cell (white bar) and HDF stimulated with LTA at 10 μg/ml (black bar). Data are means±S.D. of three separate experiments. Statistical significance is indicated by * (P<0.05), ** (P<0.01), *** (P<0.001), and **** (P<0.0001), respectively. […]
All cells lines (5·10^4 to 10^5 cells/well) were seeded in 96-well plates (Corning Costar, Brumath, France) and treated as previously described. After stimulation, cells were washed three times in PBS and incubated with 100 μl per wells of 5 μM DHE (for determination of O2^●−) or 5 μM H2-DCFDA (for determination of H2O2) for 30 min as described previously and fluorescence intensity was recorded every hour over a period of 5 h. Fluorescence excitation/emission maxima were for DHE: 480/610 nm and for H2-DCFDA: 507/525 nm. At the end of the experiment, the number of adherent cells was evaluated by the crystal violet assay as described below. […]

B1: MKRMVSWSFHKLKTMKHLLLLLLCVFLVKSQGVNDNEEGFFSARGHRPLDKKREEAPSLRPAPPPISGGGYRARPAKAAATQKKVERKAPDAGGCLHADPDLGVLC (protein)
chain: MKRMVSWSFHKLKTMKHLLLLLLCVFLVKSQGVNDNEEGFFSARGHRPLDKKREEAPSLRPAPPPISGGGRARPAKAAATQKKVERKAPDAGGCLHADPDLGVLCMKRMVSWSFHKLKTMKHLLLLLLCVFLVKSQGVNDNEEGFFSARGHRPLDKKREEAPSLRPAPPPISGGGYRARPAKAAATQKKVERKAPDAGGCLHADPDLGVLC
modifications: GST fusion; fragment Fg1
notes: fragment of Bß chain of human fibrinogen having 106 amino acids; recombinant GST-fused peptide expressed in E. coli
For the molecule B1, the “Inhibition of Hydrogen peroxide (H2O2) production” value was “pos” in experiment [1] (P. acnes 6919, set I); “pos” in experiment [1] (P. acnes PIE, set I); “pos” in experiment [1] (P. acnes RON, set I). Moreover, the “Inhibition of Interleukine 1 beta (IL-1β) production” value in experiment [2] is reported as “pos”. For the same molecule, the “Inhibition of Interleukine 8 (IL-8) production” value in experiment [3] (P. acnes 6919, set I, bacteria first pretreated) is on record as “pos”; in experiment [3] (P. acnes 6919, set II, cells first pretreated), “pos”; in experiment [3] (P. acnes PIE, set I, bacteria first pretreated), “pos”; in experiment [3] (P. acnes PIE, set II, cells first pretreated) it was “pos”; in experiment [3] (P. acnes RON, set I, bacteria first pretreated), “pos”; in experiment [3] (P. acnes RON, set II, cells first pretreated) it was “pos”. The “Decrease of H2O2 production by LTA-stimulated cells” value in experiment [4] is listed as “significantly decreases production of H2O2”.

The record behind these values is patent US10323078B2, “Isolated peptides and fragments thereof from fibrinogen for use as drugs, particularly in skin inflammatory diseases” (Universite Paris Descartes, priority 2015, dated 2019).
